According to IntAct's records for PubMed 10930573:

B1: Histidine kinase 1 (Arabidopsis thaliana (Mouse-ear cress)), Q9SXL4 (parent)
chain: MRGDSFSMSIENLPDSPMGSRKKKMQIRKVFDKMTEWVTPWRSNLESPREMMILRGDVEQDEFQYASSHCLSSYYSVFVVRLAIMVMLAILIGLLTVLTWHFTRIYTKQSLQTLAYGLRYELLQRPVLRMWSVLNTTSELTTAQVKLSEYVIKKYDKPTTQEELVEMYQAMKDVTWALFASAKALNAITINYRNGFVQAFHRDPASSSTFYIFSDLKNYSISGTGPEDVSGWNNKSIHGNMSAIWYQQQLDPVTGENLGKPLKIPPDDLINIAGISQVPDGEASWHVTVSKYMDSPLLSAALPVFDASNKSIVAVVGVTTALYSVGQLMRDLVEVHGGHIYLTSQEGYLLATSTDGPLLKNTSNGPQLMKATDSEEWVIKSGAQWLEKTYGSKRPHVVHAENVKLGDQRYYIDSFYLNLKRLPIVGVVIIPRKFIMGKVDERAFKTLIILISASVCIFFIGCVCILILTNGVSKEMKLRAELIRQLDARRRAEASSNYKSQFLANMSHELRTPMAAVIGLLDILISDDCLSNEQYATVTQIRKCSTALLRLLNNILDLSKVESGKLVLEEAEFDLGRELEGLVDMFSVQCINHNVETVLDLSDDMPALVRGDSARLVQIFANLISNSIKFTTTGHIILRGWCENINSLHDEMSVSVDRRKPWAPMKTKQVQHRNHLQKSCKNANKMVLWFEVDDTGCGIDPSKWDSVFESFEQADPSTTRTHGGTGLGLCIVRNLVNKMGGEIKVVQKNGLGTLMRLYLILSTPDTVDQNIQPDFSKYGLVVMLSMYGSTARMITSKWLRKHGIATVEASDWNELTQIIRDLLETGSRDNSFDSQHNISDPLRAELSNIVEIKNPVFVIVVDIGVLDLTTNIWKEQLNYLDRFSNKAKFAWLLKHDTSNTVKTELRRKGHVMMVNKPLYKAKMIQILEAVIKNRKRGLCNDLRNRGNGSDESHDCLEIDPTQFDTCSSDDSSETSGEKQVDKSVKPSTLHSPVLKNYLIDATTSNDDSTSASMTQKNPEEEDWKDRLYSGIALDGKNQKSLEGIRILLAEDTPVLQRVATIMLEKMGATVTAVWDGQQAVDSLNYKSINAQAPTEEHKSFEEETANKVTTRETSLRNSSPYDLILMDCQMPKMDGYEATKAIRRAEIGTELHIPIVALTAHAMSSDEAKCLEVGMDAYLTKPIDRKLMVSTILSLTKPSAFQTSLSA
partner: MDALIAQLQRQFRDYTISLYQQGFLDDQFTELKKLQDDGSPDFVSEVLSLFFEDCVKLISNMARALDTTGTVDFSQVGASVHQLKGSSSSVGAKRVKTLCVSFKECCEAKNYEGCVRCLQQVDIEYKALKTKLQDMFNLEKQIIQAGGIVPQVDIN

Variants of: B1
Conditions: with ahp2_arath AHP2, Q9ZNV8

**Q.** How did the “effect of a mutation on the interaction” value turn out when D1075E was run?
**A.** Its value is “disrupting interaction”.
